The record followed here is the supplement of paper PMC9112550, “Optimization of the antimicrobial peptide Bac7 by deep mutational scanning” (BMC Biology, 2022).

For this series, the system named is Escherichia coli TOP10. Briefly: shrunken log2 fold change of peptide-encoding DNA abundance (4.5 h post-induction vs induction); higher = less antimicrobial activity (less host growth inhibition). The note with it: time post-induction: 4.5 h; library: site-saturation at positions 5, 18, 19, 20.
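Further: peptides expressed intracellularly from a pBAD plasmid library in pooled LB shake-flask culture, induced with 0.3% L-arabinose, DNA abundance read by NGS, three biological replicates, DESeq2 with apeglm shrinkage.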

RRIRARPPRLPRPRPRPGTFPRP: the “shrunken log2 fold change” value was -0.125. Next, RRIRIRPPRLPRPRPRPPWPPRP: 0.397; RRIRCRPPRLPRPRPRPAKYPRP: -0.299; RRIRDRPPRLPRPRPRPKHGPRP: 0.0517. Next, RRIRMRPPRLPRPRPRPPKFPRP: 0.166; RRIRTRPPRLPRPRPRPEFWPRP: 0.445. Next, RRIRHRPPRLPRPRPRPCPNPRP: -0.00414; RRIRYRPPRLPRPRPRPDCPPRP: -0.179; RRIRKRPPRLPRPRPRPEALPRP: 1.67. Regarding RRIRIRPPRLPRPRPRPGAKPRP, the “shrunken log2 fold change” value turned out to be 0.126. Next, RRIRGRPPRLPRPRPRPAWMPRP: 0.554. For the sequence RRIRIRPPRLPRPRPRPESMPRP, the “shrunken log2 fold change” value turned out to be 0.0174.

As for RRIRQRPPRLPRPRPRPNERPRP, the “shrunken log2 fold change” value is -0.0297. Next, RRIRKRPPRLPRPRPRPAVKPRP: -0.104; RRIRTRPPRLPRPRPRPHTQPRP: -0.0664; RRIRYRPPRLPRPRPRPGRGPRP: 0.254.

As for RRIRVRPPRLPRPRPRPVQIPRP, the “shrunken log2 fold change” value was -0.0141. Next, RRIRKRPPRLPRPRPRPVKVPRP: 0.432; RRIRVRPPRLPRPRPRPGFNPRP: -0.0909; RRIRMRPPRLPRPRPRPDETPRP: 0.103. Next, RRIRFRPPRLPRPRPRPWFRPRP: -0.151. Regarding RRIRQRPPRLPRPRPRPLPRPRP, the “shrunken log2 fold change” value came to 0.724. Next, RRIRKRPPRLPRPRPRPCRRPRP: 0.112; RRIRRRPPRLPRPRPRPDESPRP: 0.037. Turning to RRIRYRPPRLPRPRPRPFHTPRP, the “shrunken log2 fold change” value is -0.128.

As to RRIRIRPPRLPRPRPRPHECPRP, the “shrunken log2 fold change” value is -0.164. On to RRIRVRPPRLPRPRPRPSNQPRP, for which the “shrunken log2 fold change” value is -0.507.

As for RRIRERPPRLPRPRPRPIFYPRP, the “shrunken log2 fold change” value was -0.385. Next, RRIRERPPRLPRPRPRPNNTPRP: -0.769; RRIRHRPPRLPRPRPRPISIPRP: 0.0201; RRIRRRPPRLPRPRPRPGWYPRP: 0.205.

For the sequence RRIRLRPPRLPRPRPRPWYKPRP, the “shrunken log2 fold change” value is -0.0396. As to RRIRRRPPRLPRPRPRPNCDPRP, the “shrunken log2 fold change” value is 0.186. Next, RRIRDRPPRLPRPRPRPDDIPRP: -0.00277; RRIRSRPPRLPRPRPRPWTLPRP: -0.0934. Turning to RRIRARPPRLPRPRPRPLKKPRP, the “shrunken log2 fold change” value was 0.0777. Next, RRIRMRPPRLPRPRPRPRWKPRP: 0.214. Next, RRIRRRPPRLPRPRPRPANMPRP: -0.0342. For RRIRIRPPRLPRPRPRPYRYPRP, the “shrunken log2 fold change” value is -0.127. Next, RRIRYRPPRLPRPRPRPCIMPRP: -3.3; RRIRERPPRLPRPRPRPFFGPRP: -0.217; RRIRERPPRLPRPRPRPAGDPRP: 3.19.

RRIRGRPPRLPRPRPRPIKNPRP: the “shrunken log2 fold change” value was 0.488. For RRIRHRPPRLPRPRPRPPSTPRP, the “shrunken log2 fold change” value is -0.0909.

Regarding RRIRRRPPRLPRPRPRPPHCPRP, the “shrunken log2 fold change” value was 1.08.

Turning to RRIRYRPPRLPRPRPRPYRLPRP, the “shrunken log2 fold change” value is -0.173. RRIRKRPPRLPRPRPRPILCPRP: the “shrunken log2 fold change” value was 0.00753.

For the sequence RRIRPRPPRLPRPRPRPQWNPRP, the “shrunken log2 fold change” value was determined as 0.36. Next, RRIRPRPPRLPRPRPRPLIPPRP: -0.19; RRIRTRPPRLPRPRPRPDMGPRP: -0.0558. Next, RRIRYRPPRLPRPRPRPDDPPRP: -0.239; RRIRQRPPRLPRPRPRPFSWPRP: -0.0597. Consider RRIRSRPPRLPRPRPRPLAQPRP, for which the “shrunken log2 fold change” value was determined as 0.261. Next, RRIRARPPRLPRPRPRPYVRPRP: -0.377; RRIRSRPPRLPRPRPRPKGVPRP: 0.0137; RRIRRRPPRLPRPRPRPAHWPRP: 0.672. Turning to RRIRNRPPRLPRPRPRPERIPRP, the “shrunken log2 fold change” value was -0.00936. Next, RRIRQRPPRLPRPRPRPGWYPRP: 0.126. Next, RRIRGRPPRLPRPRPRPVKCPRP: -0.118. Next, RRIRVRPPRLPRPRPRPKHAPRP: 0.133; RRIRHRPPRLPRPRPRPNQWPRP: -0.227; RRIRDRPPRLPRPRPRPGTWPRP: 0.475. Consider RRIRGRPPRLPRPRPRPVTVPRP, for which the “shrunken log2 fold change” value was found to be 0.0499. Next, RRIRARPPRLPRPRPRPFPKPRP: 0.178; RRIRNRPPRLPRPRPRPVCLPRP: -0.453.

For RRIRRRPPRLPRPRPRPSDKPRP, the “shrunken log2 fold change” value was -0.492. Next, RRIRGRPPRLPRPRPRPENDPRP: 1.74; RRIRARPPRLPRPRPRPVQQPRP: 0.954; RRIRNRPPRLPRPRPRPANTPRP: -0.242. Next, RRIRLRPPRLPRPRPRPRQLPRP: 0.153; RRIRGRPPRLPRPRPRPVTMPRP: 0.396. Next, RRIRARPPRLPRPRPRPFLEPRP: -0.219; RRIRHRPPRLPRPRPRPPCQPRP: 0.0503; RRIRPRPPRLPRPRPRPYQGPRP: -0.0345. With RRIRHRPPRLPRPRPRPIDRPRP, the “shrunken log2 fold change” value was -0.263.

For the sequence RRIRLRPPRLPRPRPRPGVGPRP, the “shrunken log2 fold change” value is 0.537.

With RRIRSRPPRLPRPRPRPGWDPRP, the “shrunken log2 fold change” value came out at 0.444.

Consider RRIRCRPPRLPRPRPRPDWRPRP, for which the “shrunken log2 fold change” value was 0.243. Next, RRIRNRPPRLPRPRPRPRQDPRP: 0.0815; RRIRNRPPRLPRPRPRPYQCPRP: -0.00804; RRIRTRPPRLPRPRPRPKYGPRP: -0.0738.

Regarding RRIRARPPRLPRPRPRPFIHPRP, the “shrunken log2 fold change” value is -0.45. Next, RRIRPRPPRLPRPRPRPEKFPRP: -0.181; RRIRWRPPRLPRPRPRPGKEPRP: -0.0139.

As to RRIRHRPPRLPRPRPRPPMTPRP, the “shrunken log2 fold change” value is -0.175. In the case of RRIRIRPPRLPRPRPRPCHSPRP, the “shrunken log2 fold change” value is 0.00888.

Regarding RRIRKRPPRLPRPRPRPHLMPRP, the “shrunken log2 fold change” value was -0.129. Next, RRIRYRPPRLPRPRPRPLIPPRP: -0.671; RRIRRRPPRLPRPRPRPHRLPRP: 0.0507. Consider RRIRIRPPRLPRPRPRPTTHPRP, for which the “shrunken log2 fold change” value was -0.441. As to RRIRCRPPRLPRPRPRPDHLPRP, the “shrunken log2 fold change” value is -0.0314. Next, RRIRPRPPRLPRPRPRPCTHPRP: -0.0646; RRIRQRPPRLPRPRPRPVYSPRP: -0.0563; RRIRNRPPRLPRPRPRPEHNPRP: -0.486. Next, RRIRGRPPRLPRPRPRPQVSPRP: 0.0928; RRIRTRPPRLPRPRPRPHCHPRP: -0.0122.

For the sequence RRIRPRPPRLPRPRPRPLCNPRP, the “shrunken log2 fold change” value is -0.05.

Regarding RRIRYRPPRLPRPRPRPMYTPRP, the “shrunken log2 fold change” value is -0.597.

Take RRIRMRPPRLPRPRPRPLLIPRP: the “shrunken log2 fold change” value is -0.397. Next, RRIRARPPRLPRPRPRPGIPPRP: 0.162. Next, RRIRKRPPRLPRPRPRPRGIPRP: 0.0697; RRIRERPPRLPRPRPRPLSQPRP: -0.406; RRIRLRPPRLPRPRPRPVIVPRP: -0.0265.

For the sequence RRIRKRPPRLPRPRPRPYFLPRP, the “shrunken log2 fold change” value was -0.278. Next, RRIRDRPPRLPRPRPRPYWKPRP: -0.00829; RRIRPRPPRLPRPRPRPWCYPRP: -0.143. Consider RRIRMRPPRLPRPRPRPQKSPRP, for which the “shrunken log2 fold change” value stood at 0.167. Next, RRIRFRPPRLPRPRPRPSCGPRP: -0.235; RRIRLRPPRLPRPRPRPKMNPRP: -0.37. As for RRIRERPPRLPRPRPRPIRCPRP, the “shrunken log2 fold change” value was determined as 0.0648.

Regarding RRIRYRPPRLPRPRPRPMGMPRP, the “shrunken log2 fold change” value is -0.188. Next, RRIRSRPPRLPRPRPRPVMRPRP: 0.594. Next, RRIRVRPPRLPRPRPRPGSYPRP: -0.186; RRIRTRPPRLPRPRPRPEFHPRP: -0.351; RRIRDRPPRLPRPRPRPPRTPRP: 0.389. Turning to RRIRRRPPRLPRPRPRPYTKPRP, the “shrunken log2 fold change” value was -0.284. In the case of RRIRDRPPRLPRPRPRPHGRPRP, the “shrunken log2 fold change” value stood at 0.0088. Next, RRIRSRPPRLPRPRPRPFCLPRP: -0.302; RRIRGRPPRLPRPRPRPLRCPRP: 0.58.

Take RRIRYRPPRLPRPRPRPANDPRP: the “shrunken log2 fold change” value was -0.0297. Next, RRIRVRPPRLPRPRPRPAFDPRP: -0.339; RRIRARPPRLPRPRPRPLNPPRP: -0.111. Next, RRIRVRPPRLPRPRPRPYELPRP: -0.401; RRIRSRPPRLPRPRPRPVTPPRP: 0.0877; RRIRFRPPRLPRPRPRPSMMPRP: -0.941.
